Measured values reported in patent US20080181899A1 (Regeneron, published 2008).
Changes are numbered by the printed parent chain.

T1: hDII1-hFc (human delta-like ligand 1 fused to human Fc) (human, UniProt O00548 18-544)
T1 construct: not shown: human Fc
T1 sequence: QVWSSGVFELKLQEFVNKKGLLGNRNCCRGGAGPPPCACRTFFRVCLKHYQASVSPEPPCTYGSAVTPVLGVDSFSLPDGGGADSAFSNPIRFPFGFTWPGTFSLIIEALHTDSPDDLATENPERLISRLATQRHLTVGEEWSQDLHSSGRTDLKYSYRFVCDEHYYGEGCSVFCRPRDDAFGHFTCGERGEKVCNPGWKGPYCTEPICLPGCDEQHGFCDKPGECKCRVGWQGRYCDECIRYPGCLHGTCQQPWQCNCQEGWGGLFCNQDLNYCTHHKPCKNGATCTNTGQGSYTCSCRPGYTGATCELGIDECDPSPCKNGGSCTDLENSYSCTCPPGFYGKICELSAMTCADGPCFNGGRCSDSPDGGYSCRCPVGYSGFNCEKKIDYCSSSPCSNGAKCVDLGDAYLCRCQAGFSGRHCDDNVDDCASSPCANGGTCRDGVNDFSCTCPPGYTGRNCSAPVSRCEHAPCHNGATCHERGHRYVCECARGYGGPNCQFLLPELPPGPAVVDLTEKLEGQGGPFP

T2: hDII3-hFc (human delta-like ligand 3 fused to human Fc) (human, UniProt Q9NYJ7 27-490)
T2 construct: not shown: human Fc
T2 sequence: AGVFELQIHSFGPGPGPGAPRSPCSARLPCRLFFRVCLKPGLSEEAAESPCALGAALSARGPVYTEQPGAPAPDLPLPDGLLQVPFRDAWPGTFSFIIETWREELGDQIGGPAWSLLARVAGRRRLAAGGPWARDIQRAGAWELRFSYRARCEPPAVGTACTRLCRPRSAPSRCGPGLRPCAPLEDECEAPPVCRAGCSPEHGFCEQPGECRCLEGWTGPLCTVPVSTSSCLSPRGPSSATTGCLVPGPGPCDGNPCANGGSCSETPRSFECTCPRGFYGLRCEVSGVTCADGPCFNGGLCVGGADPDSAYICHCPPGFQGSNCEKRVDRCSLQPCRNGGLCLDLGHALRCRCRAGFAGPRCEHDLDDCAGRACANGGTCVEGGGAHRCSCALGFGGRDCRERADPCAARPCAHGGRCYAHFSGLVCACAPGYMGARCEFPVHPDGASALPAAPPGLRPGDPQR

B1: 318518-01A10-D8 (antibody, human IgG1)
heavy: not shown
VL: EIVMTQSPATLSLSPGERATLSCRASQSVSSYLAWYQQKPGQAPRLLIYDASNRATGIPARFSGSGSGTDFTLTISSLEPEDFAVYYCQHRSNWPPTFGGGTKVEIK
notes: HCVR 429 with hIgG1 constant region 950; also called REGN281; 318518-1A10-D8
B2: REGN422 (antibody, human IgG4 S228P)
heavy: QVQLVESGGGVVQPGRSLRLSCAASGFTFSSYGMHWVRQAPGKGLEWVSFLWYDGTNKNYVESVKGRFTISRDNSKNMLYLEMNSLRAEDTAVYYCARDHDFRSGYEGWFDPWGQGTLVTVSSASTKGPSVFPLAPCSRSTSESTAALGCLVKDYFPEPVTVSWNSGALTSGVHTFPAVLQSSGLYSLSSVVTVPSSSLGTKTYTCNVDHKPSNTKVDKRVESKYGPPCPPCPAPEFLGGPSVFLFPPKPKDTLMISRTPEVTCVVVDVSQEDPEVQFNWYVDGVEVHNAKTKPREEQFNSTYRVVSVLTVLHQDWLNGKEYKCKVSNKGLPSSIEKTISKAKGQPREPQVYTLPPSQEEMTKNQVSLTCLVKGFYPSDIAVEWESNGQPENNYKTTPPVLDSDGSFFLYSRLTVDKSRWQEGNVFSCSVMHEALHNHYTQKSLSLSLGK
VL: B1 VL with M4L
notes: HCVR 901 with modified hIgG4 constant region 952
B3: REGN421 (antibody, human IgG1)
heavy: not shown
VL: B1 VL with M4L
notes: HCVR 901 with hIgG1 constant region 950

What was measured:
[1] = biological target: T3, hDII4-mFc (human, UniProt Q9NR61 27-524); test: SPR BIACORE; antibody captured by anti-hFc; dimeric DII4-mFc analyte
T3 construct: also called dimeric DII4-mFc; not shown: mouse Fc
T3 sequence (Q9NR61 27-524 limits assumed): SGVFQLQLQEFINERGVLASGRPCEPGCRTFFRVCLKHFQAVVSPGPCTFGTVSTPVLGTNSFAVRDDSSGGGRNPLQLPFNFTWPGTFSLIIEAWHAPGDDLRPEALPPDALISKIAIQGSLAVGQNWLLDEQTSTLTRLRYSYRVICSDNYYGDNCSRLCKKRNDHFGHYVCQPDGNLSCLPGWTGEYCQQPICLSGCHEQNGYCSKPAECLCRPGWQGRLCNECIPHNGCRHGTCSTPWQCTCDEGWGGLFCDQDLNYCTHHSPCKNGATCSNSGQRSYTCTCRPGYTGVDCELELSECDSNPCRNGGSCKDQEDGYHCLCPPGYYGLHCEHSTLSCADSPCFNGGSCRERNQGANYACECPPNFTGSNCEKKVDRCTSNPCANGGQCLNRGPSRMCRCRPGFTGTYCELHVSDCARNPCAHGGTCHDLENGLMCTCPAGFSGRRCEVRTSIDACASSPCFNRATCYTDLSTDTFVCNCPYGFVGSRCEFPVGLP
Experimental: (§1) Equilibrium dissociation constants (KD values) for antigen binding to the selected antibodies described above were determined by surface kinetics on a real-time biosensor surface plasmon resonance assay (BIACORE™ 2000). The antibody was captured on a goat anti-mouse IgG polyclonal antibody surface created through direct chemical coupling to a BIACORE™ chip to form a captured antibody surface. […] Kinetic analysis was performed to calculate KD, dissociation rate constants, and half-life of antigen/antibody complex dissociation (Table 1). […] Antibodies were presented by goat anti-hFc polyclonal antibody reagent (Jackson Immuno Research Lab) immobilized on BIACORE™ chip, and exposed to either dimeric DII4-mFc or monomeric DII4 protein (Table 2).

[2] = biological target: T4, mDII4-mFc (mouse, UniProt Q9JI71 28-525); test: SPR BIACORE; DII4 protein captured by anti-mouse IgG; antibody injected
T4 construct: also called mouse DII4-mFc; not shown: mouse Fc
Experimental: Briefly, each of the DII4 proteins was captured (240-470 RU) on goat anti-mouse IgG antibody surfaces, followed by injection of test antibody at a concentration of 100 μg/ml (Table 11).

[3] = biological target: T1, hDII1-hFc (human delta-like ligand 1 …); test: SPR BIACORE; antibody captured by anti-human kappa; hDII1-hFc analyte
Experimental: Cross-reactivity of the antibodies to human delta-like ligand1 (SEQ ID NO:953) and human delta-like ligand 3 (SEQ ID NO:954) proteins was determined.

[4] = biological target: T2, hDII3-hFc (human delta-like ligand 3 …); test: OCTET; antibody captured by biotin-anti-hK on streptavidin biosensor
Experimental: Briefly, strepavidin high binding FA biosensors (ForteBio, Inc., Menlo Park, Calif.) were first incubated with biotin-anti-hK at 5 μg/ml for 10 min at 30° C., to achieve saturation. […] Changes in the thickness of the biological layer after each incubation were measured.

[5] = biological target: T5, dimeric hDII4-hFc (human, UniProt Q9NR61 27-524, biotin in Example 3 (biotin-DII4-hFc), site not stated); test: cell-based or functional assay
[6] = biological target: T6, monomeric hDII4 (human delta-like ligand 4) (human, UniProt Q9NR61 27-524); test: SPR BIACORE; antibody captured by anti-hFc; monomeric DII4 analyte
T6 construct: also called monomeric DII4 protein
Experimental: as §1

[7] = biological target: T5, dimeric hDII4-hFc; test: competition ELISA; antibody titrated against 25 pM biotin-DII4-hFc; free biotin-DII4-hFc on Notch-hFc plate
Experimental: The ability of the antibodies to block DII4 binding to Notch was evaluated with an ELISA-based immunoassay. Briefly, Notch-hFc recombinant protein was coated on a 96-well plate in PBS buffer overnight at 4° C. at […], and the nonspecific binding sites were blocked with BSA.

[8] = biological target: hDII4 on cells (DII4 expressing HUVEC; engineered C6 rat glioma cells expressing hDII4) (human, UniProt Q9NR61 27-685); test: cell-based or functional assay
Sequence of hDII4 on cells (DII4 expressing HUVEC; engineered C6 rat glioma cells expressing hDII4) (Q9NR61 27-685 limits assumed, stated change not applied): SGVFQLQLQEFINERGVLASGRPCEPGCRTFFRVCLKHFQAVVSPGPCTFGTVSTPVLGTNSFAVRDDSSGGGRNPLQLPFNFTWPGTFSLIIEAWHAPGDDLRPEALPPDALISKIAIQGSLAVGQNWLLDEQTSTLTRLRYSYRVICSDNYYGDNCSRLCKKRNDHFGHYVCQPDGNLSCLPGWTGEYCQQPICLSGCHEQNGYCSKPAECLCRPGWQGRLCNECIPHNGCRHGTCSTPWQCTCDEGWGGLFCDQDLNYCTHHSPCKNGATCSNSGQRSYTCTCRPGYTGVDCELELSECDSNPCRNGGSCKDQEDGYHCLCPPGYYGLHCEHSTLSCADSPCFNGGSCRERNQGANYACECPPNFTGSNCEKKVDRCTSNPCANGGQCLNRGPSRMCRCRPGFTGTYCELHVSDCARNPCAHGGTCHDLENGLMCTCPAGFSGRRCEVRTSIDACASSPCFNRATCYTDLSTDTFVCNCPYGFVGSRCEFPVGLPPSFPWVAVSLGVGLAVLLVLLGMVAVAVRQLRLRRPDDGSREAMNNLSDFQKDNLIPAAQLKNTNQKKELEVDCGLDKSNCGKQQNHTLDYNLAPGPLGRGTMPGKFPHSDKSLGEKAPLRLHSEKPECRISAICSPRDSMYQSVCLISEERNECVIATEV

[9] = biological target: T2, hDII3-hFc (human delta-like ligand 3 …); test: SPR BIACORE; ligand amine-coupled to CM-5 chip; antibody injected
Source text: An alternative BIACORE™ format was used to assess cross-reactivity between anti-hDII4 antibody and either hDII1-hFc or hDII3-hFc.

Binder	Kd [1] [nM]	binding result [2]	binding result [3]	binding result [4]	HUVEC proliferation assay IC50 [5] [nM]	Kd [6] [nM]	IC50 [7] [nM]	EphrinB2 Expression IC50 [8] [nM]	Hes1 Expression IC50 [8] [nM]	binding result [9]
B1	0.018	no binding (tested: 100 µg/ml)	no binding (tested: 100 µg/ml)	no binding (tested: 200 nM)	0.096	0.399	0.05	0.305	0.329	–
B2	–	no binding (tested: 100 µg/ml)	no binding (tested: 100 µg/ml)	–	–	–	–	–	–	no binding (tested: 300 µg/ml)
B3	–	no binding (tested: 100 µg/ml)	no binding (tested: 100 µg/ml)	–	–	–	–	–	–	no binding (tested: 300 µg/ml)
